According to US20160208226A1, “Transaminase Biocatalysts” (COMMONWEALTH SCIENTIFIC AND INDUSTRIAL RESEARCH ORGANISATION, priority 2013, published 2016):

B1: p6: pyruvate: ω-amino acid transaminase from a newly isolated Pseudomonas sp., amino acid sequence SEQ ID NO:1 (protein, listed as Pseudomonas sp.)
chain: MGSSHHHHHHSSGLVPRGSHMNQQVNVAPSAAADLNLKAHWMPFSANRNFHKDPRIIVAAEGSWLVDDKGRRIYDSLSGLWTCGAGHSRKEIADAVAKQIGTLDYSPGFQYGHPLSFQLAEKIAQMTPGTLDHVFFTGSGSECADTSIKMARAYWRIKGQAQKTKLIGRARGYHGVNVAGTSLGGIGGNRKMFGPLMDVDHLPHTLQPGMAFTKGAAETGGVELANELLKLIELHDASNIAAVIVEPMSGSAGVIVPPKGYLQRLREICDANDILLIFDEVITAFGRMGKATGAEYFGVTPDIMNVAKQVTNGAVPMGAVIASSEIYDTFMNQNLPEYAVEFGHGYTYSAHPVACAAGIAALDLLQKENLIQQSAELAPHFEKALHGLKGTKNVIDIRNCGLAGAIQIAARDGDAIVRPFEASMKLWKEGFYVRFGGDTLQFGPTFNAKPEDLDRLFDAVGEALNGVA
B2: GabT: Gamma-aminobutyrate Transaminase; E.C. 2.6.1.19, from E. coli strain BL21-DE3, N-terminal His6-tag (protein, listed as Escherichia coli)
chain: MNSNKELMQRRSQAIPRGVGQIHPIFADRAENCRVWDVEGREYLDFAGGIAVLNTGHLHPKVVAAVEAQLKKLSHTCFQVLAYEPYLELCEIMNQKVPGDFAKKTLLVTTGSEAVENAVKIARAATKRSGTIAFSGAYHGRTHYTLALTGKVNPYSAGMGLMPGHVYRALYPCPLHGISEDDAIASIHRIFKNDAAPEDIAAIVIEPVQGEGGFYASSPAFMQRLRALCDEHGIMLIADEVQSGAGRTGTLFAMEQMGVAPDLTTFAKSIAGGFPLAGVTGRAEVMDAVAPGGLGGTYAGNPIACVAALEVLKVFEQENLLQKANDLGQKLKDGLLAIAEKHPEIGDVRGLGAMIAIELFEDGDHNKPDAKLTAEIVARARDKGLILLSCGPYYNVLRILVPLTIEDAQIRQGLEIISQCFDEAKQ
modifications: N-terminal His6-tag
notes: Gamma-aminobutyrate Transaminase; E.C; 2.6.1.19, from E. coli strain BL21-DE3, N-terminal His6-tag

What was measured:
Assay type in all cases: biochemical
[1] = Coupled dehydrogenase assays for transaminase activity of the Pseudomonas sp. proteins and ancestral reconstructions
Procedure: Activity for each protein was assessed using coupled dehydrogenase assays as described previously. A typical assay comprised:
Substrate (6.25 mM final concentration in potassium phosphate buffer)
Co-substrate (pyruvate (0.5 mM final concentration) or α-KG (0.25 mM final concentration)
NAD (1.25 mM final concentration)
Dehydrogenase (1 μL from ADH-≧35 units/mL stock solution or GDH≧35 units/mg protein stock)
Transaminase (final concentration dependent)
Potassium phosphate buffer (100 mM)
UV absorbance at 340 nm was recorded at 28° C. over a pH range of 7.5-10 with a range of substrates.
Proteins encoded by p7N6, p7N15, p7N16, p7N17, p7N43 and p7N48 were expressed using an E. coli recombinant expression platform and subsequently purified.
Each of the proteins were assayed for substrate specificity. Substrates identified by assaying for each of the proteins are summarized below.

[2] = Large-scale (200 mL) p6 reaction analysed by GC-MS; settings: C11 amino acid substrate, after seven days, oil analysed by GC-MS
Procedure: To corroborate the findings of the UV assay, a large-scale (200 mL) p6 reaction was carried out using C11 amino acid substrate. After seven days, the mixed reaction was allowed to settle and yellow oil was observed on the surface of the reaction. This oil was concentrated in vacuo and analysed by GC-MS. […] The diacid is thought to be the oxidation product of the semialdehyde formed by the transaminase, further supporting the findings of the UV assay.

[3] = Coupled assay of GabT with glutamate dehydrogenase (NADH formation at 340 nm); settings: coupled GDH assay, NADH detected at 340 nm
From the text: DNA encoding the GabT protein from E. coli strain BL21-DE3 was amplified from genomic DNA using specially designed primers. The PCR product was restricted using NdeI and BamHI restriction endonucleases (NEB) and ligated (T4 DNA ligase, NEB) into a modified pET expression vector that had also been restricted using the aforementioned enzymes, and contained ampicillin resistance for selectivity. The vector was transformed into electrocompetent E. coli strain BL21-DE3 and transformants plated onto LB agar plates containing ampicillin (100 μg/mL) for selectivity. Transformant DNA was isolated and sent for sequencing to confirm the identity of the vector construct. […] The protein was purified using a HiTrap Chelating HP 5 mL column (GE Healthcare) for nickel affinity chromatography on an FPLC (Fast Protein Liquid Chromatography. GE Healthcare), exploiting an N-terminal His6-tag on GabT. SDS-PAGE confirmed the protein size.
Protein activity was confirmed using a coupled assay that comprised GabT and a commercially available glutamate dehydrogenase (GDH; Sigma Aldrich). The assay works as illustrated below, with the dehydrogenase catalysing the oxidative deamination of glutamate—the co-product of the GabT transamination reaction.
Therefore, although a viable biocatalyst for these substrates had been identified, it could not produce the desired longer chain (>C9) products. […]

| Molecule | pH optimum ([1]; UV absorbance at 340 nm, 28° C., pH range 7.5-10) | smallest substrate accepted ([1]; coupled dehydrogenase assay) | activity with ω-amino acids including long chain C11 and C12 ([1]; coupled dehydrogenase assay, 340 nm, 28° C., pH 7.5-10) | product detected by GC-MS in large-scale reaction [2] | substrate scope of GabT [3] |
| --- | --- | --- | --- | --- | --- |
| B1 | ~10 | C3 (β-alanine) | shown the desired activity with ω-amino acids, notably including long chain amino acids C11 and C12 | a peak corresponding to the mass of the C11 diacid was also found in large concentrations | – |
| B2 | – | – | – | – | C4-C8 omega-amino acids |
